B1: FAM189A2 (parent)
chain: NLAGFILGCQGAQFVSSVPRCDLV
B2: LCOR (parent)
chain: YKVKERLGTLKNPPKKKMKLMSG

Variants of: B1
Assay: protein stability index of a GFP-peptide fusion (GPS, HEK-293T) (PSI 1-6); higher = more stable
Details: c terminus: a fixed tail appended
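Also: lentivirally expressed fusions sorted by FACS into six bins by GFP to DsRed ratio, PSI derived from sequencing read proportions per bin multiplied by bin number.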

| Variant | protein stability index |
| --- | --- |
| R20P | 2.2 |
| R20D | 3.39 |
| R20I | 2.15 |
| R20H | 3.48 |
| R20L | 1.87 |
| R20E | 1.96 |
| R20Q | 1.45 |
| R20K | 2.1 |
| R20M | 2.91 |
| R20G | 3.08 |
| R20Y | 1.75 |
| R20F | 2.19 |
| Q10D | 3.6 |
| Q10L | 1.53 |
| Q10G | 2.63 |
| Q10H | 2.76 |
| Q10P | 4.29 |
| Q10M | 3.99 |
| Q10R | 2.51 |
| Q10C | 1.49 |
| Q10I | 2.87 |
| Q10T | 3.84 |
| F14A | 1.29 |
| F14K | 1.16 |

| Variant | protein stability index |
| --- | --- |
| F14V | 2.29 |
| F14E | 1.34 |
| F14T | 1.27 |
| F14Q | 1.92 |
| F14P | 2.4 |
| F14Y | 2.9 |
| F14H | 1.87 |
| F14N | 1.72 |
| F14W | 2.78 |
| F14R | 1.27 |
| F14M | 2.71 |
| G11R | 5.06 |
| G11Y | 3.45 |
| G11W | 3.48 |
| G11P | 3.59 |
| G11N | 3.08 |
| G11L | 3.39 |
| G11I | 3.71 |
| G11D | 2.76 |
| L7S | 2.02 |
| L7K | 1.69 |
| L7E | 1.77 |
| L7D | 2.19 |
| L7Q | 2.1 |

| Variant | protein stability index |
| --- | --- |
| L7C | 2.6 |
| L7P | 1.43 |
| L7R | 1.63 |
| L7F | 2.51 |
| L7T | 2.58 |
| L7N | 2.75 |
| L7G | 1.82 |
| L7H | 1.73 |
| L7M | 2 |
| L2T | 1.76 |
| L2W | 1.35 |
| L2N | 1.97 |
| L2K | 2.67 |
| L2S | 1.55 |
| L2I | 3.93 |
| L2Y | 2.72 |
| L2P | 1.26 |
| L2Q | 3.01 |
| L2R | 1.87 |
| S17Q | 2.31 |
| S17R | 2.1 |
| S17D | 1.72 |
| S17Y | 3.35 |
| S17W | 3.85 |

| Variant | protein stability index |
| --- | --- |
| S17H | 3.37 |
| S17M | 1.47 |
| S17K | 2.33 |
| S17E | 2.31 |
| S17T | 1.97 |
| S17I | 1.39 |
| V24C | 3.68 |
| V24D | 1.76 |
| V24F | 2.58 |
| V24S | 2.12 |
| V24Q | 2.26 |
| V24H | 3.38 |
| V24R | 2.19 |
| V24A | 1.72 |
| V24P | 2.59 |
| V24T | 1.53 |
| V24I | 2.26 |
| V24K | 1.82 |
| V24E | 2.23 |
| A12H | 1.03 |
| A12D | 4.07 |
| A12E | 3.98 |
| A12C | 2.54 |
| A12W | 2.15 |

| Variant | protein stability index |
| --- | --- |
| A12K | 1.89 |
| A12F | 2.91 |
| A12P | 2.99 |
| A12R | 3.12 |
| A12L | 2.95 |
| C21T | 2.56 |
| C21H | 2.54 |
| C21M | 2.81 |
| C21Q | 2.07 |
| C21K | 3.12 |
| C21N | 2.79 |
| C21D | 2.33 |
| C21F | 2.92 |
| C21A | 2.57 |
| C21R | 1.64 |
| C21S | 1.68 |
| F5M | 1.7 |
| F5Q | 2.27 |
| F5T | 1.86 |
| F5S | 1.87 |
| F5G | 1.5 |
| F5H | 2.71 |
| F5N | 2.19 |
| F5P | 3.25 |

| Variant | protein stability index |
| --- | --- |
| F5D | 2.16 |
| F5I | 5.13 |
| F5E | 2.18 |
| V18Y | 2.68 |
| V18S | 2.4 |
| V18G | 1.61 |
| V18T | 1.68 |
| V18F | 2.54 |
| V18D | 2.55 |
| V18I | 3.42 |
| V18K | 1.99 |
| V18N | 2.59 |
| V18C | 2.83 |
| V18L | 2.27 |
| V18M | 3.72 |
| V18P | 2.8 |
| V18R | 1.78 |
| V18E | 1.05 |
| V15D | 1.55 |
| V15E | 1.94 |
| V15R | 1.75 |
| V15H | 3.13 |
| V15Y | 2.46 |
| V15L | 3.14 |

| Variant | protein stability index |
| --- | --- |
| V15C | 2.72 |
| V15K | 2.19 |
| V15Q | 3.5 |
| C9K | 1.74 |
| C9H | 3.12 |
| C9R | 1.23 |
| C9E | 2.54 |
| C9V | 2.04 |
| C9S | 2.71 |
| C9P | 1.11 |
| C9F | 2.36 |
| C9G | 2.35 |
| C9L | 1.76 |
| C9D | 1.38 |
| C9A | 2.62 |
| P19N | 3.15 |
| P19C | 3.7 |
| P19R | 2.56 |
| P19H | 3.01 |
| P19A | 3.01 |
| P19M | 1.45 |
| P19F | 3.04 |
| P19T | 3.3 |
| P19Q | 2.65 |

| Variant | protein stability index |
| --- | --- |
| G8K | 3.72 |
| G8F | 3.47 |
| G8D | 2.19 |
| G8P | 2.03 |
| G8L | 2.81 |
| G8Y | 3.33 |
| G8I | 3.23 |
| G8R | 2.34 |
| G8W | 2.45 |
| G8T | 2.17 |
| D22E | 1.18 |
| D22V | 2.39 |
| D22M | 2.78 |
| D22G | 1.75 |
| D22I | 2.13 |
| D22N | 3.21 |
| D22F | 2.58 |
| D22P | 3.08 |
| D22K | 2.59 |
| D22C | 2.27 |
| A3P | 1.45 |
| A3M | 3.4 |
| A3S | 1.12 |
| A3W | 3.4 |

| Variant | protein stability index |
| --- | --- |
| A3K | 2.35 |
| A3R | 1.72 |
| A3Q | 1.03 |
| A3D | 1.84 |
| A3H | 2 |
| A3N | 4.16 |
| A3E | 2.11 |
| A3T | 3.18 |
| A3Y | 3.97 |
| A3F | 2.77 |
| L23G | 1.28 |
| L23N | 2.75 |
| L23R | 1.58 |
| L23F | 3.42 |
| L23D | 2.45 |
| L23C | 3.66 |
| L23P | 2.98 |
| L23S | 1.93 |
| L23Y | 2.52 |
| L23W | 3.69 |
| L23I | 2.33 |
| L23K | 1.94 |
| I6V | 2.18 |
| I6Y | 2.26 |

| Variant | protein stability index |
| --- | --- |
| I6Q | 1.94 |
| I6A | 1.46 |
| I6W | 1.76 |
| I6D | 2.68 |
| I6K | 2.29 |
| I6G | 1.79 |
| I6N | 2.11 |
| I6S | 1.98 |
| I6T | 1.66 |
| I6P | 1.6 |
| I6E | 1.49 |
| I6F | 2.78 |
| I6H | 1.64 |
| I6C | 2.3 |
| I6R | 1.78 |
| S16Y | 4.96 |
| S16I | 3.41 |
| S16L | 2.34 |
| S16T | 2.23 |
| S16D | 1.04 |
| S16R | 2.89 |
| S16E | 2.21 |
| S16N | 1.72 |
| S16C | 2.58 |

| Variant | protein stability index |
| --- | --- |
| S16K | 3.56 |
| S16W | 3.86 |
| S16G | 3.41 |
| S16H | 1.8 |
| Q13F | 3 |
| Q13M | 2.01 |
| Q13N | 2.93 |
| Q13C | 2.76 |
| Q13P | 2.31 |
| Q13Y | 3.26 |
| Q13D | 2.27 |
| Q13T | 3.16 |
| Q13A | 4.08 |
| Q13V | 2.53 |
| G4P | 3.65 |
| G4Y | 4.24 |
| G4T | 3.08 |
| G4C | 3.26 |
| G4F | 2.45 |
| G4M | 4.18 |
| G4D | 2.36 |
| G4N | 3.42 |

Variants of: B2
Assay: as above
Details: c terminus: native

| Variant | protein stability index |
| --- | --- |
| E5I | 1.75 |
| E5C | 1.74 |
| E5K | 2.21 |
| E5Q | 1.22 |
| E5D | 1.78 |
| E5S | 2.11 |
| E5A | 1.75 |
| E5F | 2.71 |
| E5H | 2.85 |
| E5N | 1.25 |
| E5G | 2.44 |
| E5P | 2.25 |
| E5R | 1.95 |
| K2D | 1.48 |
| K2C | 1.79 |
| K2S | 1.8 |
| K2W | 3.46 |
| K2A | 1.48 |
| K2V | 3.04 |
| K2I | 1.72 |
| K2E | 1.71 |
| K2Q | 1.31 |
| K2G | 1.64 |
| K2Y | 2.37 |

| Variant | protein stability index |
| --- | --- |
| K2L | 3.05 |
| K2H | 1.88 |
| K2N | 1.45 |
| K4Y | 2.3 |
| K4E | 2.48 |
| K4D | 1.45 |
| K4Q | 1.88 |
| K4N | 2.97 |
| K4P | 1.35 |
| K4R | 3.6 |
| K4M | 1.26 |
| K4H | 2.52 |
| K4L | 2.23 |
| K4W | 3.3 |
| K4V | 1.22 |
| K4S | 1.93 |
| K4G | 2.1 |
| K4A | 1.88 |
| V3R | 2.51 |
| V3K | 1.98 |
| V3W | 3.38 |
| V3P | 2.27 |
| V3C | 1.6 |
| V3S | 1.92 |

| Variant | protein stability index |
| --- | --- |
| V3F | 1.62 |
| V3N | 2.69 |
| V3T | 1.91 |
| V3H | 1.89 |
| V3L | 1.97 |
| V3E | 2.08 |
| V3G | 1.67 |
| V3M | 2.46 |
| V3Y | 1.69 |
| V3D | 2.36 |
| V3Q | 3.06 |
| Y1A | 2.34 |
| Y1D | 2.03 |
| Y1V | 2.05 |
| Y1F | 1.23 |
| Y1K | 1.54 |
| Y1S | 2.2 |
| Y1M | 1.93 |
| Y1G | 1.2 |
| Y1P | 1.72 |
| Y1N | 1.9 |
| Y1E | 2.15 |
| Y1L | 2.59 |
| Y1W | 2.2 |
